Source: PMC4105854

Tested on: DNA gyrase
Test: single-molecule T7 transcription elongation rate titrated with gyrase
Settings: multiple biotin (topologically constrained); not given in the held text

nuoB-N template with multiple biotins (~12 kb)
Kd: 100 nM
